Laboratory results from US20220332800A1 (Takeda / Millennium, published 2022).

Tests used:
Zika PRVABC59 live virus = Zika PRVABC59 live virus (Zika virus); assay: cell-based or functional assay
[1] = molecular target: T1, ZIKV-VLP (Native Antigen Inc.) (Zika virus); assay: indirect ELISA, purified antibody serially diluted from 10 µg/ml
T1 construct: also called Zika VLP; ZVLP

[2] = molecular target: T1, ZIKV-VLP (Native Antigen Inc.); assay: BLI binning on ZIKV-VLP; 1st mAb: 242-3
[3] = molecular target: T1, ZIKV-VLP (Native Antigen Inc.); assay: BLI (Octet), supernatant IgG captured on Protein A biosensor, ZIKV-VLP 3.3 µg/mL in solution, 1:1 model
[4] = molecular target: T1, ZIKV-VLP (Native Antigen Inc.); assay: BLI binning on ZIKV-VLP; 1st mAb: 4G2
[5] = molecular target: T1, ZIKV-VLP (Native Antigen Inc.); assay: BLI binning on ZIKV-VLP; 1st mAb: Ab1
[6] = molecular target: T1, ZIKV-VLP (Native Antigen Inc.); assay: BLI binning on ZIKV-VLP; 1st mAb: Ab2
[7] = molecular target: T1, ZIKV-VLP (Native Antigen Inc.); assay: BLI binning on ZIKV-VLP; 1st mAb: C10
[8] = molecular target: T1, ZIKV-VLP (Native Antigen Inc.); assay: BLI binning on ZIKV-VLP; 1st mAb: 11-3
[9] = molecular target: T1, ZIKV-VLP (Native Antigen Inc.); assay: BLI binning on ZIKV-VLP; 1st mAb: 78-2
[10] = molecular target: T1, ZIKV-VLP (Native Antigen Inc.); assay: BLI binning on ZIKV-VLP; 1st mAb: 102-1
[11] = molecular target: T1, ZIKV-VLP (Native Antigen Inc.); assay: BLI binning on ZIKV-VLP; 1st mAb: 181-4
[12] = molecular target: T1, ZIKV-VLP (Native Antigen Inc.); assay: BLI binning on ZIKV-VLP; 1st mAb: 260-2
[13] = molecular target: T1, ZIKV-VLP (Native Antigen Inc.); assay: BLI binning on ZIKV-VLP; 1st mAb: 289-3
[14] = molecular target: T1, ZIKV-VLP (Native Antigen Inc.); assay: BLI binning on ZIKV-VLP; 1st mAb: 306-2
[15] = molecular target: T1, ZIKV-VLP (Native Antigen Inc.); assay: BLI binning on ZIKV-VLP; 1st mAb: 329-2
[16] = molecular target: T1, ZIKV-VLP (Native Antigen Inc.); assay: BLI binning on ZIKV-VLP; 1st mAb: 270-12

Binder | MNT IC50 (ng/mL) of Purified antibody (Zika PRVABC59 live virus) | EC50 [1] | response of 2nd mAb [2] | koff [3] | response of 2nd mAb [4] | response of 2nd mAb [5] | response of 2nd mAb [6] | response of 2nd mAb [7] | response of 2nd mAb [8] | response of 2nd mAb [9] | response of 2nd mAb [10] | response of 2nd mAb [11] | response of 2nd mAb [12] | response of 2nd mAb [13] | response of 2nd mAb [14] | response of 2nd mAb [15] | response of 2nd mAb [16]
anti-ZIKV antibody 181-4/329-2 (antibody) heavy: QAQLEESGGDLVKPEGSLTLTCTASGFSFTDRHYMCWVRQAPGKGLEWIACVYPGSSGSTYYASWARGRFTISKTSSTTVTLRMTSLTAADTATYFCARSSYPDSSGYSYGMDLWGPGTLVTVSSGQPKAPSVFPLAPCCGDTPSSTVTLGCLVKGYLPEPVTVTWNSGTLTNGVRTFPSVRQSSGLYSLSSVVSVTSSSQPVTCNVAHPATNTKVDKTVAPSTCSKPTCPPPELLGGPSVFIFPPKPKDTLMISRTPEVTCVVVDVSQDDPEVQFTWYINNEQVRTARPPLREQQFNSTIRVVSTLPIAHQDWLRGKEFKCKVHNKALPAPIEKTISKARGQPLEPKVYTMGPPREELSSRSVSLTCMINGFYPSDISVEWEKNGKAEDNYKTTPAVLDSDGSYFLYSKLSVPTSEWQRGDVFTCSVMHEALHNHYTQKSISRSPGK light: DIVMTQTPASVEAAVGGTVTIKCQASQNINSNLAWYQQKPGQRPKFLMYLTSKLASGVPSRFRGSGSGTQFTLTISDLECADAATYYCQTYYDISNYGYAFGGGTEVVVKGDPVAPTVLIFPPAADQVATGTVTIVCVANKYFPDVTVTWEVDGTTQTTGIENSKTPQNSADCTYNLSSTLTLTSTQYNSHKEYTCKVTQGTTSVVQSFNRGDC | 26.7 ng/mL | 11.4 ng/mL | 0.01 | < 1e-07 s⁻¹ | – | – | – | – | – | – | – | – | – | – | – | – | –
anti-ZIKV antibody 260-3 (antibody, also called clone 260-3) heavy: QAQLEESGGDLVKPEGSLTLTCTASGFSFTDRHYMCWVRQAPGKGLEWIACVYPGSSGSTYYASWARGRFTISKTSSTTVTLRMTSLTAADTATYFCARSSYPDSSGYSYGMDLWGPGTLVTVPSGQPKAPSVFPLAPCCGDTPSSTVTLGCLVKGYLPEPVTVTWNSGTLTNGVRTFPSVRQSSGLYSLSSVVSVTSSSQPVTCNVAHPATNTKVDKTVAPSTCSKPTCPPPELLGGPSVFIFPPKPKDTLMISRTPEVTCVVVDVSQDDPEVQFTWYINNEQVRTARPPLREQQFNSTIRVVSTLPIAHQDWLRGKEFKCKVHNKALPAPIEKTISKARGQPLEPKVYTMGPPREELSSRSVSLTCMINGFYPSDISVEWEKNGKAEDNYKTTPAVLDSDGSYFLYSKLSVPTSEWQRGDVFTCSVMHEALHNHYTQKSISRSPGK light: DIVMTQTPASVEAAVGGTVTIKCQASQNINSNLAWYQQKPGQRPKFLMYLTSKLASGVPSRFRGSGSGTQFTLTISDLECADAATYYCQTYYDISNYGYAFGGGTEVVVKGDPVAPTVLIFPPAADQVATGTVTIVCVANKYFPDVTVTWEVDGTTQTTGIENSKTPQNSADCTYNLSSTLTLTSTQYNSHKEYTCKVTQGTTSVVQSFNRGDC | 19.9 ng/mL | 7.93 ng/mL | 0.01 | < 1e-07 s⁻¹ | 0.67 | 0.32 | 4.96 | 4.06 | 0.36 | 0.33 | 0.03 | 0 | 0 | -0.03 | 0.32 | 0.01 | 0.01
